Laboratory results taken from a protein production outcome set (Wang et al. 2014).

Assay: label from the status in PepcDB records

| Sequence | protein production |
| --- | --- |
| MQIGGRQHGDWTHYSVDSDLVVAADAWQVSLGLPGGVFPPDVEPGAMVKVQVGGETVLMGRIDDISHSVASGSHQLTLSGRDLAGMLLDCSAPLFTGKGMTLQDVLDNVVKPLGIANIRVDAKARGQIEKINVDPGNSAWDVLTRAAQANGLTAWFDPDGTLLVGGPDYSRPASARLILRRDGKGNNVLSLAETRSHAQRYSELTLLGQGHGQSLTPGRHAMRHHVFDSDVCYHKPRIQVEPDAASPAELAARADKMLADARLAGYTLTATVAGHRDSQGALWTPGQRIEVESEPHGINGTYFLMARTFEGGRGQGSVTRLTLKEDKCWIPVMRAGKQ | failed |
| MRIYLIGFMCSGKSTVGSLLSRSLNIPFYDVDEEVQKREGLSIPQIFEKKGEAYFRKLEFEVLKDLSEKENVVISTGGGLGANEEALNFMKSRGTTVFIDIPFEVFLERCKDSKERPLLKRPLDEIKNLFEERRKIYSKADIKVKGEKPPEEVVKEILLSLEGNALGG | not failed |
| MRTDFNVFTTGGAPMKQIIRQFSIGTVAYAIMQVASAQVAITNVVPMNIPGQGTEIRVMFNGLPPQPQAYQLEQPARLILDFDKAGQKLAKSLIPVTTNEASSIDVSSDDKRARVVVNLKDAGAFTTRVEGNVFILKINNIQSTATPVATSAPAPQQGIGNIGFQRGAQGEGLVVIDLQGTNTPVDVQQQGSKVVVRFPGIKIPTHLARRLNTTDFATPVASIDSYNDGSNGVISIQSTGSYEYMAYQAENKLTISLKRPQDNVRLNSKNNQNYTGKKISLDFQDIEVRRVLQLLADFTNINMVTADSVQGNITLHLKDVPWDQALDIILKTKNLDKRRNGNVIWIAPVSELIKSEEDEAKAIAQSTKLAPLQTEYILLKYAKAADIEKLITQGRNSGTSNSNTNGSATVEPLGDSVGTLLSPRGTISLDPRTNTLIINDTSQKIDQIRKMIDLLDIPVKQVMIEARIVRATTSFSKEMGVKWGILSQGINQNSNLLVGGSETTLWNLRNPDSNGTYTIERPDNLNVDLGVTTTGASSIAFGLISLSDFMLDLELSALQADGYGEVISTPKVMSADKQKAKVATGVEVPYQSTTNSAAGSTATTSFKEALLSLEVTPNITPDGKILMELNIANDSINSYAQNGEAILNKNTINTNVLVNNGETVVLGGVFEQTTNNAVTKVPFLGDLPYVGRLFKKTAKSEAKNELLIFVTPRIVNDTIVGNH | failed |
| MDSSNYFYGGNNICIINTKWGKHSGIGGYAEIIDTLVGNFTNISSWAKIGIRDHIHTNFLICDFVYKDNDHIMPPGISSFEDYWVKIGNDVWVGTNVTILRGVEVGDGAVIAAGSVVTKSIPPYAIVGGNPAKFIKWRFPFEVREKLLEIKLEHHHHHH | failed |
| MSETPERGLGSRAGVVLVDRYRLDERIGVGGMGEVWRATDILLSRPVAVKLLHLAQVSDPVSQQRFRTEAQITAALSHPNIAQVYDYGEQDGFSFLVMELITGESLSAIIKRNPGLDPDITLDVVDQAAQALSAAHANGVIHRDIKPGNLLVTEDGTVKLTDFGIARGNESVTLTQTGMVMGTAQYISPEQVSGKPASPLSDIYALGIVAYECLAGHPPFTADTPLALALAHSREPPPPLPDSVPPAVRELVECMLAKDPQERPSSAAEVSQWAQRLRAALNGGDATEALGLVSATAATAVVPAQPGPPTGDSTPVDGPHSGAQAQTWPPPQGKDSDRVAERSAAPNSRLNLPVVFALIATVGAVAVGIFLVGLLGKEPGTNGTPTSHRSVVPTLSRSPDTTENITTDSQTPVPDNPGGQLPPLNDEPEESYSPAPHPEPTTPPQSEYPSPPGDGADSTPDPGEEPGGPSDEDDADGGGAAPGGPTGGTGEESRGSTPP | failed |
| MSILDILILLAPIFFVIVLGWFAGHFGSYDAKSAKGVSTLVTKYALPAHFIAGILTTSRSEFLSQVPLMISLIIGIVGFYIIILLVCRFIFKYDLTNSSVFSLNSAQPTFAFMGIPVLGSLFGANEVAIPIAVTGIVVNAILDPLAIIIATVGESSKKNEESGDSFWKMTGKSILHGLCEPLAAAPLISMILVLVFNFTLPELGVKMLDQLGSTTSGVALFAVGVTVGIRKIKLSMPAIGIALLKVAVQPALMFLIALAIGLPADQTTKAILLVAFPGSAVAAMIATRFEKQEEETATAFVVSAILSLISLPIIIALTA | failed |
| TKTTTQGAKSGVFDTVDEAVQAAVIAQNCYKEKSLEERRNVVKAIREALYPEIETIATRAVAETGMGNVTDKILKNTLAIEKTPGVEDLYTEVATGDNGMTLYELSPYGVIGAVAPSTNPTETLICNSIGMLAAGNAVFYSPHPGAKNISLWLIEKLNTIVRDSCGIDNLIVTVAKPSIQAAQEMMNHPKVPLLVITGGPGVVLQAMQSGKKVIGAGAGNPPSIVDETANIEKAAADIVDGASFDHNILCIAE | not failed |
| MSLKFDFSNLFEPNISGGLTDEDVKSVEEKVTSAVRNFVENTPDFAKLDRSWIDSVKSLEDWIINFDTVVVLGIGGSGLGNLALHYSLRPLNWNEMTREERNGYARVFVVDNVDPDLMSSVLDRIDPKTTLFNVISKSGSTAEVMATYSIARGILEAYGLDPREHMLITTDPEKGFLRKLVKEEGFRSLEVPPGVGGRFSVLTPVGLLSAMAEGIDIDELHEGAKDAFEKSMKENILENPAAMIALTHYLYLNKGKSISVMMAYSNRMIYLVDWYRQLWAESLGKRYNLKGEEVFTGQTPVKALGATDQHSQIQLYNEGPNDKVITFLRVENFDREIVIPETGRAELSYLARKKLSELLLAEQTGTEEALRENNRPNMRVTFDGLTPYNVGQFFAYYEAATAFMGYLLEINPFDQPGVELGKKITFALMGREGYTYEIKERSKKVIIE | not failed |
| MSKGRDILTKTIILALREVAPGLEAVLEAHLRATLNSGIELAYDDPQKFKEAVSKLFGEYSARLLEMVIISKLKGRLGEDIEANSLEELVSEIRKIYGE | not failed |
| MDESCERVKAIYNEHEYLEAYSRHTDLRVDVDPKLAIGGMWEEIGKLQFEYLTKKGLQCHHELLDIGCGTLRGGRHFIKYLNSSNYYGVDISFKAIESAKELVVEEKLSDKKPQLLLDKNKSLNFNCYLGKTFDFIFAQSVFTHLKPEHISECFENIGQIMNEDSAFYFTYNNSVEYREVGFKNFYYPFDFFENLVERNGFKLKECKSEYAHPRGQIMVEIVKR | failed |
| MQPCPSEAPRVLHALTRRGMALALAATLSLVLSACGGGGDDTAAATTAPPSSNAVTPSPSPAPAPTYSVGGTVAGLGSGLSVKLLNNGGDAVTVTANGNFQFPTALASGAQYAATVGTRPSGQQCTIANDSGTMGSANVTNIAVTCSTRPLFAYTANSNDNTVSAYTLDPTTGAPTLIGTPISVGQGPLSLIADKAGKFVYVVDGNDNSVTTLAIDSETGLLTISGTPATTGMQPFNIARTPASTFAYTTNFGDNTLSGFSINATTGVLTSIGTIAAGTNPYTIVINKAGTFAYVVNAASGAGTPSAMVFSINGATGALTAVGSPVATGNAPFYIALHPAGTFAYVANSQDNTVQVYAINQTTGALTAVGSPVATGQGPIPIAIHPSGLFAYVGNVFDNTVSLYAINTGTGALTLKSTLATGNDPLAITLNDAGSIAYIVNGVDHDVVAYAVDSSTGALTSVATAQTGLLPRAFAIVAVP | failed |
| PISRLAQIQQARKEKEPDYILLSERGMPRRREFVMQVKVGNEVATGTGPNKKIAKKNAAEAMLLQLGYKASTSLQD | not failed |
| MSLDKIRYGIMSTAQIVPRFVAGLRESAQAEVRGIASRRLENAQKMAKELAIPVAYGSYEELCKDETIDIIYIPTYNQGHYSAAKLALSQGKPVLLEKPFTLNAAEAEELFAIAQEQGVFLMEAQKSVFLPITQKVKATIQEGGLGEILWVQSVTAYPNVDHIPWFYSREAGGGALHGSGSYPLQYLQYVLGKEIQEVTGTATYQQGATDSQCNLALKFAEGTLGNIFINVGLKIPSEMTICGTKGQIVIPNFWKTDCAYYTDAQGNTVKWSEQFTSEFTYEINHVNQCLQDKKLTSPVMTKELTIATVKIVESFYQEWFDNEGHHHHHH | not failed |
| MSQVSIIIPTLNEAASLGRTLRQLTLLNPPAKEVIVVDGGSEDETIAIAKQNFESFRQATGVQVIFCERRGRSVQMNYGALSATGDILCFLHADTWVPDDLVAVIEKTLAETKVSCGGFISLMTGSQTTRWGISLHNYLKTYYAPLLFKPHLFFQGLRLLFGDQVMFCRRNDFWDCGGFNEELPIMEDGDLCLKLVQKGRIALVNRIVQSSDRRVARWGSWKATAIYLYIGVLWGIGVDANYLKQFYQDIRLEHHHHHH | not failed |
| MTIQQWLFSFKGRIGRRDFWIWIGLWFAGMLALFSLAGKNLLDIQTAAFCLVCLLWPTAAVMVKRLHDRGRSGAWALLMILAWMLLAGNWVMLPGMWQWVVGRFIPTLILVMMLIDLGAFVGVQGENKFGKATQDVKFKAEP | failed |
